Substitutions are numbered along the chain they refer to. Like-named read-outs stand apart in the source and are kept apart here. Values belong to the binder of their own block, whether it stands above or below them.
What was measured:
[1] = target: T1, Human HER3, endogenous, on human cancer cell lines (SK-Br-3, MCF7, BT-474) (human, UniProt P21860 20-1342); test: cell-based or functional assay
[2] = target: T1, Human HER3, endogenous, on human cancer …; test: cell-based or functional assay; remark: listed apart in the source
[3] = target: T1, Human HER3, endogenous, on human cancer …; test: cell-based or functional assay; remark: listed apart in the source
[4] = target: T2, Hu HER3: CD33-[Human HER3, residues 20-640]-TAG (human, UniProt P21860 20-640); test: SET, IgG vs soluble HER3-Tag
T2 construct: also called hu HER3-Tag; HER3-Tag; not shown: C-terminal TAG (e.g., FLAG TAG)
T2 sequence (P21860 20-640): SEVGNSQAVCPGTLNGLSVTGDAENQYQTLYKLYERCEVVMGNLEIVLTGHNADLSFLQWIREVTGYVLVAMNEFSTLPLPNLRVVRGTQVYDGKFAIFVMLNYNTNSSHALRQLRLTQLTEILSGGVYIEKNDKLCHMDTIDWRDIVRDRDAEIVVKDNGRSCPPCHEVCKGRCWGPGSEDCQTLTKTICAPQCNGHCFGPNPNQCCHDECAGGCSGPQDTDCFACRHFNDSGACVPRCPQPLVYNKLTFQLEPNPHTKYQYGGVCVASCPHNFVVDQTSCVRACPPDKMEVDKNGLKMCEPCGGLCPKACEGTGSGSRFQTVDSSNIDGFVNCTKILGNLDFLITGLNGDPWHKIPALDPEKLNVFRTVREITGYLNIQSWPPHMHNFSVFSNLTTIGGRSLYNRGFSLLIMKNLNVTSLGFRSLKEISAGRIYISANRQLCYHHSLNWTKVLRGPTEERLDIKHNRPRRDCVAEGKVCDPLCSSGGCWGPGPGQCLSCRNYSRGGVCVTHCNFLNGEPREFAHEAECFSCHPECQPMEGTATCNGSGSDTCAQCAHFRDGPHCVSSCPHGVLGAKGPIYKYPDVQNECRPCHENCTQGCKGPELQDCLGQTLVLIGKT
Protocol: (§1) Affinity determination in solution was essentially performed as previously described (Friguet et al., (1985) J Immunol Methods 77:305-19). In order to improve the sensitivity and accuracy of the SET method, it was transferred from classical ELISA to ECL based technology (Haenel et al., (2005) Anal Biochem 339:182-84).
(§2) The data was evaluated with XLfit software (ID Business Solutions) applying customized fitting models.
(§3) Antibody affinity was determined by solution equilibrium titration (SET) as described above. The results are summarized in Table 3 and example titration curves for MOR12616 and MOR12925 are contained in FIG. 1.

[5] = target: T3, Cyno HER3: CD33-[Cyno HER3, residues 20-643]-TAG (cynomolgus, UniProt G7PIG5 20-643); test: SET, IgG vs soluble HER3-Tag
T3 construct: also called cy HER3-Tag; not shown: C-terminal TAG (e.g., FLAG TAG)
T3 sequence (G7PIG5 entry or part of it): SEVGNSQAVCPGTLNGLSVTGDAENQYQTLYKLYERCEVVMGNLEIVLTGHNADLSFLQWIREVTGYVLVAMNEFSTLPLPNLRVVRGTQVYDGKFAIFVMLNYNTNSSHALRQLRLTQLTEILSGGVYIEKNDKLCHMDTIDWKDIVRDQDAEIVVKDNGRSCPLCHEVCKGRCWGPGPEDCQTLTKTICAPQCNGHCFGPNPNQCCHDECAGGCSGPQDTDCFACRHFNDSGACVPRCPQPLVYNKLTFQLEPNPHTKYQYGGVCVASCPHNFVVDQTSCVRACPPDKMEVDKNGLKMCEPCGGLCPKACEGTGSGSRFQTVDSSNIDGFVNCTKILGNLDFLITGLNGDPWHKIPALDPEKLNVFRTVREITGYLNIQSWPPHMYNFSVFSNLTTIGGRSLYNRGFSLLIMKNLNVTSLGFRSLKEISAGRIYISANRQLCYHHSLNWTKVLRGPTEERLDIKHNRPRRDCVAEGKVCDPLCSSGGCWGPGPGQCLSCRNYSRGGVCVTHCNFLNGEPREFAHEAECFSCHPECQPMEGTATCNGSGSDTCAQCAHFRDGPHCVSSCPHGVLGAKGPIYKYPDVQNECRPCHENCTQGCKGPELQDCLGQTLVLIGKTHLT
Protocol: as §1, §2, §3

[6] = target: T4, Mu HER3: CD33-[Murine HER3, residues 20-643]-TAG (murine, UniProt Q61526 20-643); test: SET, IgG vs soluble HER3-Tag
T4 construct: also called mu HER3-Tag; not shown: C-terminal TAG (e.g., FLAG TAG)
T4 sequence (Q61526 20-643): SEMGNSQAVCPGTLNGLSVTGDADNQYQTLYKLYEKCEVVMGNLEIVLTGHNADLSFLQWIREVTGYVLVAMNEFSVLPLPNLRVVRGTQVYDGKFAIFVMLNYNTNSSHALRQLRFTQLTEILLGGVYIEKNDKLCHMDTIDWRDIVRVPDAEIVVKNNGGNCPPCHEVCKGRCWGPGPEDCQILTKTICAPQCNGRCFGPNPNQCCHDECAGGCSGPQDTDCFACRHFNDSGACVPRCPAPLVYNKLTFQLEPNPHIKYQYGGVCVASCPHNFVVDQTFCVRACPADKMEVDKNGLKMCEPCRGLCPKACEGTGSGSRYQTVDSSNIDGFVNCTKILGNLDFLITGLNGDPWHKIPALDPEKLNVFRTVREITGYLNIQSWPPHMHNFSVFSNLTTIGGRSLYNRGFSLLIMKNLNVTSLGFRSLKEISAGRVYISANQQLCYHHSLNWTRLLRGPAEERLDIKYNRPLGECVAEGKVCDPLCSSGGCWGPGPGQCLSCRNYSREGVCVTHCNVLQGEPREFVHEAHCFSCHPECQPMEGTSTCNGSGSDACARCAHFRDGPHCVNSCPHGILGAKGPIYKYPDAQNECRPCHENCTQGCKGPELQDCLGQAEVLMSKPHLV
Protocol: as §1, §2, §3

[7] = target: T5, Rat HER3: CD33-[Rat HER3, residues 20-643]-TAG (rat, UniProt Q62799 20-643); test: SET, IgG vs soluble HER3-Tag
T5 construct: also called ra HER3-Tag; not shown: C-terminal TAG (e.g., FLAG TAG)
T5 sequence (Q62799 20-643): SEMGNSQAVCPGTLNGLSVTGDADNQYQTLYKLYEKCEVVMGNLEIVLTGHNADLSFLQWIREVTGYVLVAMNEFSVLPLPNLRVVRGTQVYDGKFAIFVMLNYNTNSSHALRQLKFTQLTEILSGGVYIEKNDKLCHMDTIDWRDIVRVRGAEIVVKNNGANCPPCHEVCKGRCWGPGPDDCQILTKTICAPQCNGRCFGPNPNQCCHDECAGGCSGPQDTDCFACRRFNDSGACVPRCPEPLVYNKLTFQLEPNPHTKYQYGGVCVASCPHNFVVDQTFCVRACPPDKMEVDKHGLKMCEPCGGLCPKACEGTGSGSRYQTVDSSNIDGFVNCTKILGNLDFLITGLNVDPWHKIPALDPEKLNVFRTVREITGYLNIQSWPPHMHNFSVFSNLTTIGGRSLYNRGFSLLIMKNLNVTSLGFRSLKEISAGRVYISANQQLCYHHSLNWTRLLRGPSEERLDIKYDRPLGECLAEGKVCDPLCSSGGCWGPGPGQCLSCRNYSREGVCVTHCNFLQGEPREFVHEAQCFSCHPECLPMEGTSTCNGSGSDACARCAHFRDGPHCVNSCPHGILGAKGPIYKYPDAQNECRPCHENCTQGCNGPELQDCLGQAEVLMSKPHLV
Protocol: as §1, §2, §3

[8] = target: T2, Hu HER3: CD33-[Human HER3, residues …; test: binding ELISA on human HER3 (WT), IgG titrated (Example 7); fluorescence 435/530 nm
[9] = target: T6, HER3 D2: CD33-[Human HER3, residues 185-329]-TAG (human, UniProt P21860 185-329); test: ELISA on coated recombinant protein, antibody titrated (Example 7); readout on the sheet is Fluorescence Units
T6 construct: also called D2-Tag; isolated D2 protein; not shown: C-terminal TAG (e.g., FLAG TAG)
T6 sequence (P21860 185-329): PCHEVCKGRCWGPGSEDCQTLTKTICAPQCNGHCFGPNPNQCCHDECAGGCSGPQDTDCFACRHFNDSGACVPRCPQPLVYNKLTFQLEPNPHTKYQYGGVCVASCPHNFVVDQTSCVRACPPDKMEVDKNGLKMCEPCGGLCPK

[10] = target: T7, HER3 D3-4: CD33-[Human HER3, residues 330-643]-TAG (human, UniProt P21860 330-643); test: as above
T7 construct: also called D3-4-Tag; isolated domains 3-4; not shown: C-terminal TAG (e.g., FLAG TAG)
T7 sequence (P21860 330-643): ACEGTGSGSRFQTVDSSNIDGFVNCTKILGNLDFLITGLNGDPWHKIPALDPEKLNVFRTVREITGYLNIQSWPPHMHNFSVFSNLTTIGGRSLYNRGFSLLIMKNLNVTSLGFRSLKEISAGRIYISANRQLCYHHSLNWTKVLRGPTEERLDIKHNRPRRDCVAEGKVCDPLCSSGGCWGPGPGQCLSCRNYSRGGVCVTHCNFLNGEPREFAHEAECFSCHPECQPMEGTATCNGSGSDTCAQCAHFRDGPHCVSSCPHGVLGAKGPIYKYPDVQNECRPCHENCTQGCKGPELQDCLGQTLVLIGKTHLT

[11] = target: T8, HER3 D4: CD33-[Human HER3, residues 496-643]-TAG (human, UniProt P21860 496-643); test: as above
T8 construct: also called D4-Tag; isolated domain 4; not shown: C-terminal TAG (e.g., FLAG TAG)
T8 sequence (P21860 496-643): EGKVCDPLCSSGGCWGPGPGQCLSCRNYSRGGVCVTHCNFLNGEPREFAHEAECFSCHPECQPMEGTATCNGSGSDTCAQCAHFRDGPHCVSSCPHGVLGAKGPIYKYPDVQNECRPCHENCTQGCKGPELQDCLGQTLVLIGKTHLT

[12] = target: T6, HER3 D2: CD33-[Human HER3, residues …; test: as above; remark: listed apart in the source
[13] = target: T7, HER3 D3-4: CD33-[Human HER3, residues …; test: as above; remark: listed apart in the source
[14] = target: T8, HER3 D4: CD33-[Human HER3, residues …; test: as above; remark: listed apart in the source
HER3 on JTC12 cells = target: T9, HER3 on JTC12 cells; test: FACS titration on JTC12 cells
T9 construct: whole, on cells

HER3 on B16-F10 cells = target: T10, HER3 on B16-F10 cells (UniProt Q61526 20-1339); test: FACS titration on B16-F10 cells
T10 construct: whole, on cells

[15] = target: T1, Human HER3, endogenous, on human cancer …; test: FACS titration on SK-Br-3 cells
Protocol: The binding of antibodies to endogenous human antigen expressed on human cancer cells was accessed by FACS. In order to determine antibody EC₅₀ values SK-Br-3 cells were harvested with accutase and diluted to 1×10⁶ cells/mL in FACS buffer (PBS/3% FBS/0.2% NaN₃). 1×10⁵ cells/well were added to each well of a 96-well plate (Nunc) and centrifuged at 210 g for 5 minutes at 4° C. before removing the supernatant. Serial dilutions of test antibodies (diluted in 1:4 dilution steps with FACS buffer) were added to the pelleted cells and incubated for 1 hour on ice. The cells were washed and pelleted three times with 100 μL FACS buffer. PE conjugated goat anti-human IgG (Jackson ImmunoResearch) diluted 1/200 with FACS buffer were added to the cells and incubated on ice for 1 hour. Additional washing steps were performed three times with 100 μL FACS buffer followed by centrifugation steps at 210 g for 5 minutes at 4° C. Finally, cells were resuspended in 200 μL FACS buffer and fluorescence values were measured with a FACSArray (BD Biosciences). The amount of cell surface bound anti-HER3 antibody was assessed by measuring the mean channel fluorescence.
The ability of the identified antibodies to bind HER3 expressing cells was determined by calculating EC₅₀ values for their binding to the HER2 amplified cell line SK-Br-3 (see FIG. 2 and Table 4).

T1 sequence (P21860 20-1342): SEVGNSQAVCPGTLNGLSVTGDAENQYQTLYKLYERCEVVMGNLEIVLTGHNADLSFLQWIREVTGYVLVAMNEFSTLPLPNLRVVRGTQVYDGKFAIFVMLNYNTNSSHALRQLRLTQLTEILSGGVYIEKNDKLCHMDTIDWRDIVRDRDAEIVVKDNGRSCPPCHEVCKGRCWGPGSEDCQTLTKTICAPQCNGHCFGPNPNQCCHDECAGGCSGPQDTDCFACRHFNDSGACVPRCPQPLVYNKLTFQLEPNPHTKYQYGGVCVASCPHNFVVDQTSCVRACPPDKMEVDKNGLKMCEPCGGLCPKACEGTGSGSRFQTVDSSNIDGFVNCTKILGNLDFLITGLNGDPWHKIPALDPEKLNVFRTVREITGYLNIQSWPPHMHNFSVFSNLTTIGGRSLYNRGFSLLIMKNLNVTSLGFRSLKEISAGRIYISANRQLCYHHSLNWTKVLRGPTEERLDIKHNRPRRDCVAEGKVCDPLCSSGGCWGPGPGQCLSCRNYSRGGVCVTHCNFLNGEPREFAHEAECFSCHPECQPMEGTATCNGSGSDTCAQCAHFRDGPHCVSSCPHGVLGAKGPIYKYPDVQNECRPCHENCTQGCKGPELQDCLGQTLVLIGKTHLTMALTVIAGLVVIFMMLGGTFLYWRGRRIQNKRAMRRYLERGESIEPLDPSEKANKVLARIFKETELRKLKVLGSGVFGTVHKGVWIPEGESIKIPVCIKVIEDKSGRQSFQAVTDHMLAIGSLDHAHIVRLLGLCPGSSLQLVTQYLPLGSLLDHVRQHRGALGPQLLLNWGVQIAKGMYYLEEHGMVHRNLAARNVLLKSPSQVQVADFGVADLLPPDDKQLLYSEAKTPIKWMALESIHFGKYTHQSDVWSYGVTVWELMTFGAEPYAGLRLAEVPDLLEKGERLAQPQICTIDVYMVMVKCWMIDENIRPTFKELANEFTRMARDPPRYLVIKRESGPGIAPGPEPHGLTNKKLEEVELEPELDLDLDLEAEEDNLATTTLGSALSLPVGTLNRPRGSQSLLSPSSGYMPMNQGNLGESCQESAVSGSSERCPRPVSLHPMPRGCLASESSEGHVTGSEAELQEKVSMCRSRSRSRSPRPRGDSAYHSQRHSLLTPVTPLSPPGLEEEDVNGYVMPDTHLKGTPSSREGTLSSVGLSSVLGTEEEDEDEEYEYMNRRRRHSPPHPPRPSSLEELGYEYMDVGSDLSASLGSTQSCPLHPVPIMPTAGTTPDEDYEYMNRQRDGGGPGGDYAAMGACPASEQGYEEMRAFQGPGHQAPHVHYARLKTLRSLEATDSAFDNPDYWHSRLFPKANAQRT

B1: MOR12616 (antibody, human IgG1, kappa, V domains shown)
VH: QVQLVQSGAEVKKPGESLKISCKGSGYSFTNSWVAWVRQMPGKGLEWMGIIYPGNSDTIYSPSFQGQVTISADKSISTAYLQWSSLKASDTAMYYCARVHIIQPPSAWSYNAMDVWGQGTLVTVSS
VL: DIQMTQSPSSLSASVGDRVTITCRASQSISTYLNWYQQKPGKAPKLLIFGASNLQSGVPSRFSGSGSGTDFTLTISSLQPEDFATYYCQQSITELFTFGQGTKVEIKR
notes: tested as IgG
- BT474 pHER3 % inhibition [1]: 58%
- BT474 pHER3 IC50 [1]: 436 pM
- MCF7 pHER3 % inhibition [1]: 76%
- MCF7 pHER3 IC50 [1]: 245 pM
- SK-Br-3 pHER3 % inhibition [1]: 75%
- SK-Br-3 pHER3 IC50 [1]: 142 pM
- BT-474 pAkt (S473) % inhibition [2]: 78%
- BT-474 pAkt (S473) IC50 [2]: 316 pM
- MCF7 pAkt (S473) % inhibition [2]: 80%
- MCF7 pAkt (S473) IC50 [2]: 442 pM
- SK-Br-3 pAkt (S473) % inhibition [2]: 89%
- SK-Br-3 pAkt (S473) IC50 [2]: 88 pM
- BT-474 proliferation % inhibition [3]: 45%
- BT-474 proliferation IC50 [3]: 0.635 nM
- MCF7 proliferation % inhibition [3]: 32%
- MCF7 proliferation IC50 [3]: 0.415 nM
- SK-Br-3 proliferation % inhibition [3]: 48%
- SK-Br-3 proliferation IC50 [3]: 0.123 nM
- Kd [4]: 0.02 nM
- Kd [5]: 0.074 nM
- Kd [6]: 0.041 nM
- Kd [7]: 0.122 nM
- EC50 (read off the curve) [8]: ~0.1 nM
- EC50 (read off the curve) [9]: ~0.2 µg/mL
- binding result [10]: no binding (tested: 10 µg/ml)
- binding result [11]: no binding (tested: 10 µg/ml)

B3: MOR12510 (antibody, human IgG1, kappa, V domains shown)
VH: B1 VH
VL: B1 VL with S91D, T93D, L95P, F96W
notes: tested as IgG
- BT474 pHER3 % inhibition [1]: 85%
- BT474 pHER3 IC50 [1]: 34 pM
- MCF7 pHER3 % inhibition [1]: 73%
- MCF7 pHER3 IC50 [1]: 450 pM
- SK-Br-3 pHER3 % inhibition [1]: 78%
- SK-Br-3 pHER3 IC50 [1]: 157 pM
- MCF7 proliferation % inhibition [3]: 25%
- MCF7 proliferation IC50 [3]: 0.483 nM
- SK-Br-3 proliferation % inhibition [3]: 44%
- SK-Br-3 proliferation IC50 [3]: 0.355 nM
- Kd [4]: 0.055 nM
- Kd [5]: 0.4 nM
- Kd [6]: 0.2 nM
- Kd [7]: 0.75 nM

Continued, values first:

- BT474 pHER3 % inhibition [1]: 63%
- BT474 pHER3 IC50 [1]: 2160 pM
- MCF7 pHER3 % inhibition [1]: 81%
- MCF7 pHER3 IC50 [1]: 327 pM
- SK-Br-3 pHER3 % inhibition [1]: 75%
- SK-Br-3 pHER3 IC50 [1]: 136 pM
- BT-474 pAkt (S473) % inhibition [2]: 80%
- BT-474 pAkt (S473) IC50 [2]: 255 pM
- MCF7 pAkt (S473) % inhibition [2]: 82%
- MCF7 pAkt (S473) IC50 [2]: 295 pM
- SK-Br-3 pAkt (S473) % inhibition [2]: 88%
- SK-Br-3 pAkt (S473) IC50 [2]: 93 pM
- BT-474 proliferation % inhibition [3]: 47%
- BT-474 proliferation IC50 [3]: 0.522 nM
- MCF7 proliferation % inhibition [3]: 47%
- MCF7 proliferation IC50 [3]: 0.604 nM
- SK-Br-3 proliferation % inhibition [3]: 40%
- SK-Br-3 proliferation IC50 [3]: 0.101 nM
- Kd [4]: 0.028 nM
- Kd [5]: 0.074 nM
- Kd [6]: 0.038 nM
- Kd [7]: 0.1 nM
- EC50 (read off the curve) [8]: ~0.1 nM
- EC50 (read off the curve) [12]: ~0.1 µg/mL
- binding result [13]: no binding (tested: 10 µg/ml)
- binding result [14]: no binding (tested: 10 µg/ml)
B2: MOR12925 (antibody, human IgG1, kappa, V domains shown)
VH: B1 VH with T30S, S32Y, V34I
VL: B1 VL
notes: tested as IgG

- MCF7 pHER3 % inhibition [1]: 73%
- MCF7 pHER3 IC50 [1]: 533 pM
- SK-Br-3 pHER3 % inhibition [1]: 76%
- SK-Br-3 pHER3 IC50 [1]: 231 pM
- SK-Br-3 proliferation % inhibition [3]: 66%
- SK-Br-3 proliferation IC50 [3]: 0.271 nM
- Kd [4]: 0.235 nM
- Kd [5]: 0.215 nM
- Kd [6]: 0.125 nM
- Kd [7]: 0.315 nM
- EC50 (HER3 on JTC12 cells): 65.1 nM
- EC50 (HER3 on B16-F10 cells): 0.524 nM
- EC50 [15]: 2.08 nM
B4: MOR14535 (antibody, human IgG1, kappa, V domains shown)
VH: B1 VH with Q1E, N31T, S32T, N55L
VL: B1 VL with F49Y
notes: tested as IgG

- MCF7 pHER3 % inhibition [1]: 83%
- MCF7 pHER3 IC50 [1]: 379 pM
- SK-Br-3 pHER3 % inhibition [1]: 76%
- SK-Br-3 pHER3 IC50 [1]: 239 pM
- SK-Br-3 proliferation % inhibition [3]: 56%
- SK-Br-3 proliferation IC50 [3]: 0.181 nM
- Kd [4]: 0.072 nM
- Kd [5]: 0.044 nM
- Kd [6]: 0.029 nM
- Kd [7]: 0.064 nM
- EC50 (HER3 on JTC12 cells): 1.36 nM
- EC50 (HER3 on B16-F10 cells): 0.625 nM
- EC50 [15]: 1.27 nM
B5: MOR14536 (antibody, human IgG1, kappa, V domains shown)
VH: B1 VH with Q1E, T30S, S32Y, V34I, N55Q
VL: B1 VL with F49Y
notes: tested as IgG

— patent US20130273029A1 (Novartis, published 2013)
